Measurements published in patent US20230272114A1 (published 2023).
Each block holds one binder with its values, some of them ahead of it.

Tests used:
[1] = biological target: S267E; test: Biacore SPR
[2] = biological target: T1, recombinant human FcγRIIb protein (R&D Systems) (human, UniProt P31994 46-217); test: Biacore SPR
T1 chain: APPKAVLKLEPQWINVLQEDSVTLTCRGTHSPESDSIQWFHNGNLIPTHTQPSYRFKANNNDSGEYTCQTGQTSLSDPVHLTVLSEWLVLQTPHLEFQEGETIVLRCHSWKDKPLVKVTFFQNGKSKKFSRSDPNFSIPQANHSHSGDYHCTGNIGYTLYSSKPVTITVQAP

[3] = biological target: T2, Fc region of IgE (UniProt P01854 105-428); test: Biacore
T2 chain: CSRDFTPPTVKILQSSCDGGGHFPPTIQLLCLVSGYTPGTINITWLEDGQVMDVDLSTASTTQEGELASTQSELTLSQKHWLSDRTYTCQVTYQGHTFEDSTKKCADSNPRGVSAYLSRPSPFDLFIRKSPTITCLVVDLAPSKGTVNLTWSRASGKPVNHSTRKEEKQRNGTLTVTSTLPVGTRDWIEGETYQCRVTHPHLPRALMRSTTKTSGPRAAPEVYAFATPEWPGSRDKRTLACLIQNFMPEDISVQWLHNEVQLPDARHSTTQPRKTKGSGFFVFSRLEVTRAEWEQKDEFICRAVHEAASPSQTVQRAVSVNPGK

Kd [1]: 60 nM
B1: FcγRIIb (receptor)
chain: T1 chain

Kd [1]: 960 nM
B2: H131 FcγRIIa (receptor)
chain: QAAAPPKAVLKLEPPWINVLQEDSVTLTCQGARSPESDSIQWFHNGNLIPTHTQPSYRFKANNNDSGEYTCQTGQTSLSDPVHLTVLSEWLVLQTPHLEFQEGETIMLRCHSWKDKPLVKVTFFQNGKSQKFSHLDPTFSIPQANHSHSGDYHCTGNIGYTLFSSKPVTITVQVPSMGSSSPMGHHHHHH

Kd [1]: 0.26 nM
B3: FcγRI (receptor)
chain: QVDTTKAVITLQPPWVSVFQEETVTLHCEVLHLPGSSSTQWFLNGTATQTSTPSYRITSASVNDSGEYRCQRGLSGRSDPIQLEIHRGWLLLQVSSRVFTEGEPLALRCHAWKDKLVYNVLYYRNGKAFKFFHWNSNLTILKTNISHNGTYHCSGMGKHRYTSAGISVTVKELFPAPVLNASVTSPLLEGNLVTLSCETKLLLQRPGLQLYFSFYMGSKTLRGRNTSSEYQILTARREDSGLYWCEAATEDGNVLKRSPELELQVLGLQLPTP

Kd [2]: 5.6 nM
Kd [3]: 0.063 nM
B4: MaE11_H1L1_IgG1_S267E/L328F (antibody)
chain 1: not shown
chain 2: DIQLTQSPSSLSASVGDRVTITCRASQSVDYDGDSYMNWYQQKPGQPPKLLIYAASYLGSEIPARFSGSGSGTDFTLTISSLQPEDFATYYCQQSHEDPYTFGAGTKLEIKRTVAAPSVFIFPPSDEQLKSGTASVVCLLNNFYPREAKVQWKVDNALQSGNSQESVTEQDSKDSTYSLSSTLTLSKADYEKHKVYACEVTHQGLSSPVTKSFNRGEC

Kd [2]: 2000 nM
Kd [3]: 0.061 nM
B5: MaE11_H1L1_IgG1_WT (antibody)
chain 1: not shown
chain 2: B4 chain 2

Kd [3]: 0.064 nM
B6: MaE11_H1L1_IgG1_G236R/L328R (antibody)
chain 1: not shown
chain 2: B4 chain 2
